Legend:
[1] = target: AmtB with the C312T mutation (trimeric ammonia channel from Escherichia coli) (Escherichia coli) (UniProt P69681); test: native MS
GlnK with Y51F mutation = GlnK with Y51F mutation (UniProt P0AC55); test: native MS

stoichiometry N [1] | stoichiometry N (GlnK with Y51F mutation) | Substance
3 | – | AmtB with the C312T mutation (trimeric ammonia channel from Escherichia coli) (from UniProt P69681 23-428) (natural protein)
– | 3 | GlnK with Y51F mutation (from UniProt P0AC55 1-112) (natural protein)
